# Assay results from the RNAGym collection of RNA variant scans (doi:10.1073/pnas.2313332121).
# B1: TPR t1 (parent)
# chain: GACCAAUCUGCCCUCAGAGCUCGAGAACAUCUUCGGAUGCAGAGGAGGCAGGCUUCGGUGGCGCGAUAGCGCCAACGUCCUCAACCUCCAAUGCAUCCCACCACAUGAUGAUGCCUGAAGAGCCUUGGUUUUUUG
# Variants of: B1
# Assay: polymerase ribozyme fitness, log enrichment relative to wild type (log ratio); higher = more active; in vitro selection for triplet polymerase activity
# Summary of the method: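 Mutant libraries of each subunit of a heterodimeric triplet polymerase ribozyme were built by PCR and transcribed. Each library went through one round of in vitro selection in triplicate: annealing with biotinylated primer, partner subunit and triplets, frozen incubation at −7 °C, gel excision of extended constructs, streptavidin-bead capture and RT-PCR. Input and output libraries were Illumina-sequenced; only genotypes with ≥10 input reads and ≥1 read per output were kept. Fitness is log2(genotype enrichment/wild-type enrichment), using inverse-variance-weighted replicate averages.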
row,Variant,polymerase ribozyme fitness (log ratio)
1,G42A C94G U130G,-3.82
2,G44C C70A,-2.37
3,A41U C56A U87C,-1.49
4,G44C G77U C86A,-4.13
5,G42U G93A,-2.14
6,G42C G71U G117A,-4.04
7,A43C G93U,-2.59
8,A41U G42C C114A C124A,-3.31
9,G42U A43C G47C C62A U130C,-4.8
10,G44A A68G U112A,-3.21
11,A43C G47A C115U U116C,-3.25
12,G44C G71C A84C,-2.61
13,G42A C115A U130G,-2.13
14,A43C U87G G113C,-2.52
15,G42A A100C,-4.08
16,A43U G61U G93U,-1.76
17,G44A C70A C89A,-4.72
18,A41U G45A C56A G113A,-3.04
19,A43G C73G A75C U112A,-3.33
20,A43G G47U,-3.37
21,G42U C70U,-2.26
22,G42A A46U C76U U96G,-4.78
23,G42A A83C,-1.87
24,G42A C49U C56U U130G,-3.07

row,Variant,polymerase ribozyme fitness (log ratio)
1,A41U C72G U78A A83U,-2.44
2,A43C C56U C94A G117A,-5.97
3,A43C C124A U125G,-0.534
4,A41U G113C C115A C124A,-5.25
5,G42A U96C,-2.41
6,G42U G122A,-1.66
7,G42A C56A,-1.64
8,G42A C56G,-1.49
9,G44C U112C,0.766
10,A41U U133G,-1.49
11,G42U A121C,0.464
12,G42C C62U,-2.97
13,G44C A46U C86U,-2.43
14,A43U U55C U92C,-2.54
15,G42U G52A A75G C101U,-0.635
16,A43U C97A,-7.59
17,G42C G44A A50C C82U C85U,-3.31
18,G42A G57U G122U C123U,-2.35
19,A43U C49G U78A C115A,-3.44
20,A41U G42U G93C,-3.1
21,G44C G47U C53A C76G C102G G110C,-7.23
22,A43U G63A A103U G117C U131A,-6.74
23,A43C A118U,-1.82
24,A41U C94U A111G G128U,-4.31

row,Variant,polymerase ribozyme fitness (log ratio)
1,A43C G51U C56U G58A C80A C89G C101A G122U C123A G127A,-6.31
2,G44A G69C C102A G122A,-5.57
3,G42A G63A,-2.56
4,G44A C49U U54G C70A U112G,-6.09
5,G42A A111U,-5.4
6,G42C C49U,-2.21
7,A43C C88U,-2.23
8,G42U G44A C56U G61C A68U C85U G110U U116C,-6.46
9,G44A G110A,-2.08
10,A43U C56G,-1.4
11,A43G U130C,-1.1
12,A43U C56G C79G,-4.99
13,A41U G58C,-1.16
14,A43C G117A,-3.01
15,G44U C53A G69C A105U,-5.22
16,A43C G69U G110A,-1.54
17,G44C U54A A105G G117U U129A U133A,-7.26
18,A43C C53A C56A C62U,-3.14
19,G42C G71C C79U C80U C97A A121U,-6.28
20,G42C U133G,-1.65
21,G44A A90G C104U,-0.158
22,A43C U131C,-1.94
23,A41U G110C,-4.99
24,G42A G69A G93C,-6.98

row,Variant,polymerase ribozyme fitness (log ratio)
1,A41U G47C A75U,-3.07
2,A43U U87G,-1.43
3,G42A C86A U106G,-5.73
4,A43C G63A C114G C123U,-6.77
5,G44A G60A C89G C101A C104U,-2.79
6,G44A C70U A103U G117U,-5.43
7,A43G A66G,-4.35
8,G42A C56G G122A,-3.21
9,G42A U87G,-1.65
10,G44A A46U G93U C104U,-2.25
11,G42C C56U C124A,0.861
12,G42U G44U C49A G69U U87G A119U G135A,-1.59
13,A43U C70G,-4.41
14,G42C A46U C82G,-3.68
15,A41U G45U U78C,-2.76
16,A43U U92G,-1.81
17,G42C G44U A50C U125A,-3.27
18,A43U C124A,0.127
19,G44U A46U A111C,-3.04
20,A43U U59G U96A A105U A121C,-4.79
21,G44U C62U G63C,-2.59
22,G42C U96A C123U,-0.809
23,G44C C53G G61A,-0.806
24,G42A U54C U132A,-1.62

row,Variant,polymerase ribozyme fitness (log ratio)
1,G44A C70U,-1.67
2,G44A G60A A74U,-0.926
3,G42U C70U U126G,-5.19
4,G44C C86U U96G U129C,-2.63
5,A43C G69A U112C G135A,-4.59
6,G42A G48A G69A,-6.28
7,G42U A50U G69U A105G,-3.63
8,A43G C64U,-1.23
9,A41U C80U,-1.77
10,A43U U106A A118U,-1.2
11,G42A G45U C85A A111U,-5.93
12,G42C U96G,-1.41
13,G44A G48C A74U,-2.22
14,A41U C104U,-0.832
15,G42C U109C,-6.86
16,A43U G52U A68G C124U,-5.64
17,G44U C49A A50C C72A,-1.95
18,G42C U55A G63U C101U,-3.41
19,G42A C88G U132C,-2.38
20,A43G G48A G63A U78C U112C G127U,-3.79
21,A41U G57A,-1.97
22,A41U C53G G63C C72U G77A,-3.7
23,G42A C70A C102U C114G U125A,-6.46
24,G44U A46U U112C,-0.701

row,Variant,polymerase ribozyme fitness (log ratio)
1,A43C C62G,-5.4
2,G42A G45U C101A,-4.7
3,A41U C101G,-3.73
4,A43C G60C U131G,-3.6
5,A43C G48A C56U G63A G113U U125C U131A,-6.28
6,G44C C98U U126C,-3.05
7,G44A C89A,-1.04
8,G42U G61A,-1.21
9,A41U G48C A83C C88G,-4.38
10,A43U C53U A75G C88A U92C,-3.05
11,A43U G71U A91G,-2.96
12,G42A G44C C56G G135U,-3.31
13,A43G C114G,-3.66
14,A43C G45A A50G G113U G120C,-1.89
15,G42U G71U,-2.08
16,A43U G71A C115U,-3.62
17,A43C C56A A66U U112A,-4.32
18,G42U U130A,-1.76
19,G44U A118U,-0.733
20,A43C U78C C88U G93A,-2.62
21,G42U U78C,-1.45
22,G44C G113C,-3.05
23,G44C C49U C88A C124U,-1.53
24,A43U A50U G60A U112A,-4.39

row,Variant,polymerase ribozyme fitness (log ratio)
1,A43G G69C A90C C124G,-0.889
2,G42A G71U U130G,-4.16
3,A43G G93C G120A,-2.35
4,A43G C72G U132A G135C,-2.2
5,G42A U87C C89G A90G C115U,-5.47
6,G42U A50C,-1.99
7,A43C A46U C101G C123U,-4.18
8,A43U G69C,-2.32
9,G44C A95C,-2.1
10,G44A C76A C123G,0.122
11,G42C A66G C79U A121C U133G,-1.36
12,A43C U125A,-2
13,G42A G45C G61A A105C C115U,-6.55
14,G42U U78C C123G,0.17
15,A41U G60A C80U,-3.75
16,G44C A95U G110A,-2.88
17,A41U C79U,-0.893
18,A43C C101U,-2.75
19,G42A G113A,-2.62
20,A43G C72U C94G C101U U116G,-4.87
21,A43U C76A,-2.98
22,G44C U55A C70U C88G G117C,-6.75
23,G42U C72G G128C,-4.55
